We go through 21 sequences from the DeepSol protein solubility set.

This data set in a line: soluble on expression in E. coli; label from the status in PepcDB or PDB records.
As to “MAHHHHHHMVALEREYILGSFCELRIITSLSSTQLSKVTLRKPVEDEDTSTAERAEVFGTELIPGVPVHLPPGRSLSIFTSTGCTLLLVAAPTVLQRCYATSLGATWVRSLLDFHSHLERARVEARGRDDVGPRVLFVSDRHHCGASTYVRWLSNFAVRLGYHPLLLDGVLDTPAFAFPGSVALFHAQHCMDIEEEMNLTPGLYAQVGQSRVANPRLYQHWVQQLLPSGMEKMARSERCRVGGLFFDFGVVEPHAVEQAEAAAAAAVPSVDPTASASSAPAALGSDKSHTNPLDTLLDTIVAADIDHVCVVGSSWLRWKLVQRAWERFGGEGSMSIVQAMLDPRWNVPPEVDCGGGQHFKIFLLDSVELVRSVPVPLWNRQRWLQYFFGTPTSPVKPTLITLEASQVRVATVGAAAMDAMSTLLPMMDSEDVDRQKADVAAVSFITLQDVALKDRIVAISTATEYERSPDGELHRLPFSVFERRIRQSTVLGFALVESVTPERLTLLVSGCPLDKELGLCFLLTEEVLKS”, the “soluble on expression in E. coli” value was “not soluble”.
Regarding “MSMENFAQLLEESFTLQEMNPGEVITAEVVAIDQNFVTVNAGLKSESLIDVAEFKNAQGEIEVKVGDFVTVTIESVENGFGETKLSREKAKRAADWIALEEAMENGDILSGIINGKVKGGLTVMISSIRAFLPGSLVDVRPVKDTSHFEGKEIEFKVIKLDKKRNNVVVSRRAVLEATLGEERKALLENLQEGSVIKGIVKNITDYGAFVDLGGIDGLLHITDLAWRRVKHPSEVLEVGQEVEAKVLKFDQEKQRVSLGMKQLGEDPWSGLTRRYPQGTRLFGKVSNLTDYGAFVEIEQGIEGLVHVSEMDWTNKNVHPSKVVQLGDEVEVMILEIDEGRRRISLGMKQCQANPWEEFAANHNKGDKISGAVKSITDFGVFVGLPGGIDGLVHLSDLSWTESGEEAVRKYKKGEEVEAVVLAIDVEKERISLGIKQLEGDPFGNFISVNDKGSLVKGSVKSVDAKGAVIALSDEVEGYLPASEFAADRVEDLTTKLKEGDEVEAVIVTVDRKNRSIKLSVKAKDAKESREALNSVNAAANANAGTTSLGDLLKAKLSGEQELEHHHHHH”, the “soluble on expression in E. coli” value was “soluble”.
Consider “ETEPGHALVIWHDSTNEYYTMQQLTLAYEESRLLFEKAPQGIAMLDPSGEIVMANRSFGDLVGTTPVRLLGRNLEDFGVEEGTMEYVTPVLSDPEAVVHLDRSLETLRGKQKNVAMSFSSMGNVG”, for which the “soluble on expression in E. coli” value is on record as “not soluble”.
The entry for “MAHHHHHHMRRVRLSPPLLRFPGSLFPKKNLFSKAIPLAIQTCRLFVSYSEPSYYYYYYYHNSCMCEVIRSARDSAERMGFGEGWGVCGASTRRQHRVGLFSSGSSSEHLPCMKGWSGRKDVSLIYAYHTCLLHFLLLHTCV” is “not soluble”; for “LPIISIDTKQQVIPLVTKEGGKYVKARDNINVDIELRDSPSRSHHLSEKPRIRTKGLISYRGNTSRYFDKKSLKVKFVTNKLKEKKHRLAGMPKESEWVLHGPFLDRTLLRNYLSYNIAGEIMSYAPNVRYCELFVNGEYQGVYLAVENIEQGEQRVPIEKSDKKLHKTPYIVAWDREHKAKQKLDNYVHYTHQSGISALDVKYPGKQRLTSKQLEFINKDINHIEKVLYSYDFSQYPKYIDRESFANYFVINEFFRNVDAGKFSTYLYKDLRDRAKLVVWDFNNAFDNQIEGRVDEADFTLTDAPWFNMLIKDKAFIDLVVHRYKELRKGVLATEYLSNYIDETRHFLGPAIDRNYKKWGYVFDLKNTDPRNYLIPTERNVTSYHKSVEQLKDFIKKRGRWMDRNIETLYQYSAPSKNTNTLLE” it is “not soluble”; for “MAPDLSGTWYVLEGDPGEHLVVEALGERLSGIWTSRELAEAFLAHHPHLGMRVSALESRALKEAYLRALGMLQVEAVMVDYRPGTHRAQVARVKDLLEEVRRA” it is “soluble”.
On to “SLDEITAVVRTAARELVSADGATFVLRENGNCFYADEDAIAPLWKGLRFPLERCISGWVMLNRQAAVIEDIYQDQRIPVEAYRPTFVQSLAMVPIRGEDPIGAIGTYWARRH”, for which the “soluble on expression in E. coli” value is listed as “not soluble”.
Take “MSLQKQRFCLDTTAITDSDVRKSLGVSNISESAEKIMDIIAQARVQLDISCHIPYDTVYKELVGFLTREGCAPETLIKVDTWLVKKTPNRYEIKIPAEIFYEYIKDLRERINKGMRISENAMYETALEAYILSKPDEKDREDVLNEVLSKTVNSFRVKYRNALRGGTLDSAPDLDVLLLAKELDAAVVANDEGIEKWAQRLGLRFVNARDFPFILQEYLDLWDKKEGHHHHHH”: the “soluble on expression in E. coli” value was “soluble”.
The entry for “MSEAAIAKKETLVQAAAEKFESAASVVIVDYRGLTVEEVTNLRKQLRDAGVEMKVIKNSILSRAAKKVGLDGLDEVFTGPTAVAFSNDDVVAPAKIIDEFAKDAKALEIKGGVIEGKVSSVEQITALAKLPNREGLLSMLLSVLQAPVRNVAYAVKAVAEKNEEVA” is “not soluble”; for “MGSDKIHHHHHHMSTEKIFIIGLPRTATTSVCLAMLEQGYKTAHNAYTQDSFSQAQVLADTPIFCDYQTLDKDFPNSRFIHLTRAPELWLPSIKQLLQRMLVNLQRTDGGFNPHIKRCYSETFSPLTEENINSDEFLLDCYTRHQQGITEHFQDRPQDLLTIDVGDEGSYLAMLSFLNIEKEKAREGGFKQINIGGKVRAWQHLNNPLKVESTNKGRIDKVLY” it is “not soluble”.
The entry for “MSLNKKDVIRTLERIAIYMELKGENPFKISAYRKAALALEQDERTLDEIEDPATLKGIGKGTAEVILDLKETGESSLMHELKESVPAGLIPLLQLPSLGGKKIAKLYQELGVIDLATLKEACEQGNVRELAGFGKKSEEKILAAIAELSNKPERFPIAFVLPIAVEIEAQLKEMDSIHRFSRAGSLRRMRETVKDLDYIISTDDPEAVREQLLQLKHMGKTIASGDTKVSVELEYDYPISVDFRLVKDEAFATTLHHFTGSKEHNVKMRQLAKARGEKISEYGVENTETGDVKTFADESAFFKHFGLTYIPPEAREDQGEVELFKEAHALVTLEDIRADLHMHTTWSDGAHSIEEMAEAARQRGYEYIAITDHSKFLRVANGLSEERLKEQHAKIRELNERYDDFTIFTGIEMDILPDGTLDYEDPILAEVDFVIASIHSSFSQPREKIMDRLKTALVNHHVDLIAHPTGRLIGRREGYDVDVDMLIELAKETNTALELNANPNRLDLNSEALKKAQEQGVVMAINTDSHTKETFSYMEYGVGVARKGLIRPETVINTWPLERFCAFLRRHQPEGHHHHHH” is “soluble”.
“MEKNWYVVHTYSGYENKVKANLEKRVESMGMQDKIFRVVVPEEEETDIKNGKKKVVKKKVFPGYVLVEIVMTDDSWYVVRNTPGVTGFVGSAGSGSKPTPLLPGEAETILKRMGMDERKTDIDFELKETVKVIDGPFANFTGSIEEIDYDKSKVKVFVNMFGRETPVELEFTQIDKLLEHHHHHH”: the “soluble on expression in E. coli” value is “not soluble”.
As to “MFLKILPRIRRPTRSYAAVLAARHEGFAKVMQSDLMAFENFLGQDAVKKDDITNHTTDWTGQFKGPGSVVLYPKSTEEVSAILAYCSKNKLAVVPQGGNTGLVGGSIPVHDEVVISMNKINKQFSFDDTMGILKCDSGFILEDLDNKLAKLGYMMPFDLGAKGSCQIGGNIATCAGGIRLIRYGSLHAHLLGLTVVLPDEHGTVLHLGSSIRKDNTTLHTPHLFLGSEGQLGVITSVTMTAVPKPKSVQSAMLGIESFKKCCEVLKLAKSSLTEILSSFELLDDATMECLKTNLGLHPVLNAPTPFSILVETSGSNEDHDMEKMSAFLDECLSKNLIIDGVLAGSSAEATKMWQLRESAPLAVTRDGYVYKHDVSLPLENYYELTNVMKERCGSLAKRIVTYGHLGDGNTHLNITSEKHNEELEKLLYPFLYEWVVDHGGSISAEHGIGQLKLPYSTFGKDPEERLLTKKLKNIFDPNGILNPYKTI”, the “soluble on expression in E. coli” value is reported as “not soluble”.
Turning to “MPKRGLDVSSCEIFRFYKLITTKSLIEPVSMIVPRRSESYQEDIYPPTAAAQPSLTAHEWLSGMNRGKGGWEQAARLGNWSPGGPK”, the “soluble on expression in E. coli” value is recorded as “not soluble”.
With “MSLKVFVTGATGFIGASIARELLKDGCHVRVLARPGSDRRNLDGLDVEVCEGDLCSPESLDRGVKGCEVLYHAAADYRLWTRNPAAMYAANVEGTRHVLDAALRHGVSRVVYTSSVGTLGNPGDGTPGTEATPVTFADMVGDYKKSKFLAEREAETFLARGLPLVIVNPSTPVGPHDVKPTPTGKIIVDFLNRAMPAYLDTGLNIIDVEDCAQGHILAAQHGRIGEKYILGHENLTLRQIFSLLETVTGLAAPKVRLPYLPILAAAYANEALSRITGREPLIPLAGVQMARKFMYFDSSKAVKELGLPQRPAVEALGRAVEWFRANGYVREGHHHHHH”, the “soluble on expression in E. coli” value is recorded as “soluble”.
Regarding GGSGRPEIWIAQELRRIGDEFNAYYARRV, the “soluble on expression in E. coli” value is listed as “soluble”.
To “MGLFDRIKRVVSANLNDLVNKAEDPEKMLEQAILEMQEDLVQLRQGVAQAIAAQKRTEKQYSDAQNEINKWQRNAQLALQKGDENLARQALERKKTYTETGTALKTSLDQQSTQVETLKRNLIQLESKISEAKTKKEMLKARITTAKAQEQLEGMVRGMNSSSAMAAFERMEEKVLMQEARAQSAAELAGADLETQFARLESGSDVDDELAALKASLAPAPEQNLLPPQQQEQQSTAPKSKEVVDSELDALRKQLDQL” belongs “not soluble”; to “MSDTSYKLGITKTFPCNYLPDQQERLLIAVDERLHNSESYGWLMTQGFRRSGDQSYRPSCPNCNACQSIRVLTSDFLPSKSQKRSKKRNSHFIIKQSSQLKDSYYPLFENYINTLHQDGSMYPASFQQFESFLSCNLTQQLFIETWAPANEENGPKEDKLVCVAVTDVLSNGLSAVYTFYHPDYKANGLGVFSILTQLSLSQQMSLPYLYLGYQIDECQKMNYKDRYFPFERFIDGQWLINTKPSVNKAKIAKLEHHHHHH”, “not soluble”.
On to “MKPFVPKLVYFEPEALSYPLGQELYEKFTQMGIEIRETTSHNQVRGIPGETELARYRNAKSTLVVGVRRTLKFDSSKPSAEYAIPLATGCMGHCHYCYLQTTLGSKPYIRVYVNLDDIFAQAQKYIDERAPEITRFEAACTSDIVGIDHLTHSLKKAIEFIGATDYGRLRFVTKYEHVDHLLDAKHNGKTRFRFSVNSRYVINHFEPGTSSFDARLQAARKVAGAGYKLGFVVAPIYRHDGWEQGYFELFQELARQLEGVDLSDLTFELIQHRFTKPAKRVIEQRYPKTKLDLDESKRKYKWGRYGIGKYVYRDKEARELEETMCSYIARFFPSAQVQYFT”, for which the “soluble on expression in E. coli” value is on record as “not soluble”.
To “MALWGGRFSQAADQRFKQFNDSLRFDYRLAEQDIIGSVAWSKALVTVGVLNADEQQQLEQALSVLLEEVQANPHAILASDAEDIHSWVETKLIDKVGDLGKKLHTGRSRNDQVATDLKLWCKFQITELQTAVQQLQQALVMTAEANQDAVMPGYTHLQRAQPVTFAHWCLAYVEMLSRDESRLQDTLKRLDVSPLGCGALAGTAYAIDREQLAGWLGFASATRNSLDSVSDRDHVLELLSDASIGMVHLSRFAEDLIFFNSGEAAFVDLSDRVTSGSSLMPQKKNPDALELIRGKCGRVQGALTGMTMTLKGLPLAYNKDMQEDKEGLFDALDTWLDCLHMAALVLDGIQVKRPRCKEAAEQGYANATELADYLVAKGVPFREAHHIVGEAVVEAIRQGKALEALALSDLQQFSSVIGDDVYPILALQSCLDKRVAKGGVSPQQVASAIAEAKARLF” belongs “not soluble”; to “MGSDKIHHHHHHGEYNKLLKSTDYEYKYEAAKNYFAKGQYNRSATLLNELITILKGTDKAEESLYMLGMSYYNQKDYQTAAQTFITYFNTYPRGTFTELARFHAGKSLFLDTPEPRLDQSSTYQAIQQLQMFMEYFPNSTKKQEAQDMIFALQDKLVLKELYSAKLYYNLGNYLGNNYESCVITAQNALKDYPYTDYREELSILILRARHEMAIYSVEDKKMDRYRETIDEYYAFKNEFPESKYLKEAEKIFNESQKVIKD”, “not soluble”.
